B1: Peroxiredoxin-6 (Rattus norvegicus (Rat)), O35244 (parent)
chain: MPGGLLLGDEAPNFEANTTIGHIRFHDFLGDSWGILFSHPRDFTPVCTTELGRAAKLAPEFAKRNVKLIALSIDSVEDHFAWSKDINAYNGAAPTEKLPFPIIDDKDRDLAILLGMLDPAEKDEKGMPVTARVVFIFGPDKKLKLSILYPATTGRNFDEILRVVDSLQLTASNPVATPVDWKKGESVMVLPTLPEEEAKQLFPKGVFTKELPSGKKYLRYTPQP

Variants of: B1
Details: with 1433e_human YWHAE

Row | Variant | effect of a mutation on the interaction
1 | S32A | decreasing interaction strength

Variants of: B1
Details: with 1433e_mouse Ywhae

Row | Variant | effect of a mutation on the interaction
2 | S32A | decreasing interaction strength
